FireProtDB (doi:10.1021/bi00492a006)

B1: Ribonuclease, P00648 (parent)
chain: MMKMEGIALKKRLSWISVCLLVLVSAAGMLFSTAAKTETSSHKAHTEAQVINTFDGVADYLQTYHKLPDNYITKSEAQALGWVASKGNLADVAPGKSIGGDIFSNREGKLPGKSGRTWREADINYTSGFRNSDRILYSSDWLIYKTTDHYQTFTKIR

Variants of: B1
Conditions: Bacillus amyloliquefaciens; pH 6.3; 25 °C; Urea; Fluorescence; MES-NaOH 50 mM; reversible: yes; structure 1BNI; whole UniProt chain shown

| Variant | ddG of mutation (higher = less stable) | denaturant m value | denaturant midpoint (higher = more stable) | unfolding free energy |
| --- | --- | --- | --- | --- |
| T63R | 0.78 kcal/mol | 1.94 kcal/mol/M | 4.75 M | 9.23 kcal/mol |
| D59A | -0.11 kcal/mol | 2.33 kcal/mol/M | 4.33 M | 10.1 kcal/mol |
| D59A T63R | 0.13 kcal/mol | 2.24 kcal/mol/M | 4.4 M | 9.88 kcal/mol |
